Values quoted from earlier work, collected in publication PMC9456187, “The Ambivalence of Connexin43 Gap Peptides in Cardioprotection of the Isolated Heart against Ischemic Injury” (International Journal of Molecular Sciences, 2022).

System: isolated subsarcolemmal mitochondria, calcium-induced mitochondrial permeability transition
Settings: rat heart, Gap27 at substantially higher concentrations than in present study, ref [34]
Source text: The detailed mechanisms behind IPC are still debated, but multiple studies confirm that mitochondria play a crucial role in the observed infarct size limitation. IPC promotes translocation of signaling kinases to mitochondria, changes volume regulation of mitochondria, opens mitochondrial potassium channels and delays ROS-induced mitochondrial permeability transition. Connexin43 can be detected in subsarcolemmal mitochondria using immunoblotting of extracts from isolated mitochondria. The role of connexin43 in mitochondria has recently been reviewed ...

B1: Fibroblast growth factor 2: Fibroblast growth factor 2 triggers the protection of rat heart mitochondria (protein, UniProt P13109 10-154, looked up)
Fibroblast growth factor 2: PALPEDGGGAFPPGHFKDPKRLYCKNGGFFLRIHPDGRVDGVREKSDPHVKLQLQAEERGVVSIKGVCANRYLAMKEDGRLLASKCVTEECFFFERLESNNYNTYRSRKYSSWYVALKRTGQYKLGSKTGPGQKAILFLPMSAKS
  Effect on (FGF2-induced) protection of mitochondria against calcium-induced permeability transition (in words): triggers the protection of rat heart mitochondria
